Data published in patent publication US10660939.
Positions of bridges follow the written chain, without caps; N, C: chain ends. Non-standard residues stand in square brackets, D forms with d. Dab = NCC[C@H](N)C(=O)O

Tests used:
[1] = biological target: human melanocortin receptor-4 (human) (UniProt P32245); experiment: competition with [I125]-NDP-α-MSH, hMC4r HEK-293 membranes
[2] = biological target: human melanocortin receptor-4 (human) (UniProt P32245); experiment: cell-based or functional assay
[3] = biological target: human melanocortin receptor-4 (human) (UniProt P32245); experiment: competition with Eu-NDP-α-MSH, hMC4r HEK-293 membranes
[4] = biological target: human melanocortin receptor-4 (human), P32245; experiment: competition with [I125]-NDP-α-MSH, hMC4r HEK-293 membranes; settings: remark: other sources report otherwise
Chain of human melanocortin receptor-4 (human), P32245 (P32245 whole entry): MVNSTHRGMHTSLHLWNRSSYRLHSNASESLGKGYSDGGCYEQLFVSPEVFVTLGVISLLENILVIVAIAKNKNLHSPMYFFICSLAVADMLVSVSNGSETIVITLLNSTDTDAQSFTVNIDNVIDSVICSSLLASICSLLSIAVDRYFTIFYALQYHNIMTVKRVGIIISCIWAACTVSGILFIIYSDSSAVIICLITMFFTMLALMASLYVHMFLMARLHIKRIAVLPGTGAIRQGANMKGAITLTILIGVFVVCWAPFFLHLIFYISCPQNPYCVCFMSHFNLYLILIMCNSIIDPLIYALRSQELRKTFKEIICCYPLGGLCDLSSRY

Chain of human melanocortin receptor-4 (human) (P32245 whole entry): as above

Row | Binder | Ki [1] [nM] | EC50 (cAMP) [2] [nM] | intrinsic activity (cAMP, NDP-α-MSH is 100%) [2] [%] | Ki [3] [nM] | Ki [4] [nM]
1 | RXXFRWX (N-terminal Ac; Dab 2 (X); Dab 3 (X); D-Phe 4; hGlu 7 (X); cyclo(Dab 2-hGlu 7); C-terminal OH) [Peptide No. 136] | 35 | – | – | – | –
2 | RXXFRWX (N-terminal Ac; hGlu 2 (X); Dab 3 (X); D-Phe 4; Dab 7 (X); cyclo(hGlu 2-Dab 7); C-terminal NH2) [Peptide No. 127] | – | 0.06 | 98 | 2 | –
3 | RXXFRWX (N-terminal Ac; Dab 2 (X); Dab 3 (X); D-Phe 4; hGlu 7 (X); cyclo(Dab 2-hGlu 7); C-terminal NH2) [Peptide No. 129] | – | 0.065 | 96 | 4 | –
4 | Ac-RD[Dab][dF]RWK-OH (lactam 2-7) [Peptide No. 164] | – | – | – | – | 57
5 | RXXFRWX (N-terminal Ac; hGlu 2 (X); Dab 3 (X); D-Phe 4; Dab 7 (X); cyclo(hGlu 2-Dab 7); C-terminal OH) [Peptide No. 144] | 45 | – | – | – | –
6 | Ac-RD[Dab][dF]RWK-NH2 (lactam 2-7) [Peptide No. 163] | – | – | – | – | 4
